Test results published in patent publication US20200317768A1 (published 2020).
Residue numbers refer to the chain shown, from its start.

T1: cynomolgus monkey FcγRIIa2 extracellular domain with C-terminal His-tag (cynomolgus monkey)
T1 construct: also called cyno FcgRIIa2; cynoFcγRIIa2
T1 chain: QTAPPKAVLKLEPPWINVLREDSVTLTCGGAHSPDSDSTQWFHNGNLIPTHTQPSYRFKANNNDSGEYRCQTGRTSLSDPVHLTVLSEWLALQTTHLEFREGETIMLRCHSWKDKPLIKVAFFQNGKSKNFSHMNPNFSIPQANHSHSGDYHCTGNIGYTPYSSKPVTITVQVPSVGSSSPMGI

T2: cynomolgus monkey FcγRIIa1 extracellular domain with C-terminal His-tag (cynomolgus monkey)
T2 construct: also called cyno FcgRIIa1; cynoFcγRIIa1
T2 chain: T1 chain with T95P, A121T, K127I, S128A, N130K, N135D, Q142R

T3: cynomolgus monkey FcγRIIIaS extracellular domain with C-terminal His-tag (cynomolgus monkey, UniProt Q8SPW2 21-206 at identity 1.00))
T3 construct: also called cyno FcgRIIIaS; cynoFcγRIIIaS
T3 chain: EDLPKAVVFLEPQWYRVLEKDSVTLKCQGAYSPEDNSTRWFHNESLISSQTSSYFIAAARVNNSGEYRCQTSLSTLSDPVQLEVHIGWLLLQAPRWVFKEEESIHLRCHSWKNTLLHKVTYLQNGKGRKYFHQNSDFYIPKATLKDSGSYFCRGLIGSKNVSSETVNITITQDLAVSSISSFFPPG

T4: cynomolgus monkey FcγRIIb extracellular domain with C-terminal His-tag (cynomolgus monkey)
T4 construct: also called cyno FcgRIIb; cynoFcγRIIb
T4 chain: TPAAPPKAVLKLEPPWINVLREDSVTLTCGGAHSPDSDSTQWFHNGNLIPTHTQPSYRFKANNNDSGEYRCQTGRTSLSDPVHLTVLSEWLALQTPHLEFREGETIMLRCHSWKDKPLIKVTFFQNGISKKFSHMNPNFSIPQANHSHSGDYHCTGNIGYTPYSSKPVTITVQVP

T5: human FcγRIIb extracellular domain with C-terminal His-tag (human, UniProt P31994 43-217)
T5 construct: also called human FcgRIIb
T5 sequence: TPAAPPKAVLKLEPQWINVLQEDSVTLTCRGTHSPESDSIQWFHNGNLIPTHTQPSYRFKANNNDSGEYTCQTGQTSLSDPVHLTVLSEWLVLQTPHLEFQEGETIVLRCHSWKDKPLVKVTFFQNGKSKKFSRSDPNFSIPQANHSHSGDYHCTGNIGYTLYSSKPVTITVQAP

T6: human FcγRIIaR extracellular domain with C-terminal His-tag (human, UniProt P12318 34-217)
T6 construct: also called human FcgRIIaR; FcγRIIa (type R)
T6 chain: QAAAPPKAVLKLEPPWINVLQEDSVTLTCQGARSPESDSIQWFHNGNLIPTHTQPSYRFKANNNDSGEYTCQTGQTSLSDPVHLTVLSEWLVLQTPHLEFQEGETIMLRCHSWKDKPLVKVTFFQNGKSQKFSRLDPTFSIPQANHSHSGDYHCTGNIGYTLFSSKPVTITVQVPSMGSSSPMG

T7: human FcγRIIaH extracellular domain with C-terminal His-tag (human, UniProt P12318 34-217)
T7 construct: also called human FcgRIIaH; FcγRIIa (type H)
T7 sequence: T6 chain with R134H

B1: M103205H795-MY515/M103202L889-SK1 (antibody, human IgG1, kappa)
heavy: QVTLKESGPVLVKPTETLTLTCTVSGIDLSHDDISWVRQAPGKGLEWVGIISYAGSTYYASWAKGRLTISKDTSKNQVVLTMTNMDPVDTATYYCARGVPAYSHGGDLWGQGTLVTVSSASTKGPSVFPLAPSSKSTSGGTAALGCLVKDYFPEPVTVSWNSGALTSGVHTFPAVLQSSGLYSLSSVVTVPSSSLGTQTYICNVNHKPSNTKVDKKVEPKSCDKTHTCPPCPAPELLTGPSVFLFPPKPKDTLMISRTPEVTCVVVDVSDEDPEVKFNWYVDGVEVHNAKTKPREELYNLTYRVVSVLTVLHQDWLNGKEYKCKVSNKALPKPIEKTISKAKGQPREPQVYTLPPSREEMTKNQVSLTCLVKGFYPSDIAVEWESNGQPENNYKTTPPVLDSDGSFFLYSKLTVDKSRWQQGNVFSCSVMHEALHNHYTQKSLSLSP
light: DIVMTQSPATLSLSPGERATLSCTSSQSVYHANWLSWFQQKPGQPPKLLIYWASTLAYGVPSRFSGSGSGTDFTLTISSLQPEDAATYYCAGGYGGGRYAFGQGTKVEIKRTVAAPSVFIFPPSDEQLKSGTASVVCLLNNFYPREAKVQWKVDNALQSGNSQESVTEQDSKDSTYSLSSTLTLSKADYEKHKVYACEVTHQGLSSPVTKSFNRGEC
notes: Substitutions introduced into M103205H795-SG1, expressed with M103202L889-SK1 as light chain; EU numbering
B2: M103205H795-MY522/M103202L889-SK1 (antibody, human IgG1, kappa)
heavy: B1 heavy with A233G, S241V, L297Q, L300S
light: B1 light
notes: as for B1
B3: M103205H795-MY527/M103202L889-SK1 (antibody, human IgG1, kappa)
heavy: B1 heavy with A233T, L300S
light: B1 light
notes: as for B1
B4: M103205H795-MY526/M103202L889-SK1 (antibody, human IgG1, kappa)
heavy: B1 heavy with A233T, S241V, L300S
light: B1 light
notes: as for B1
B5: M103205H795-MY524/M103202L889-SK1 (antibody, human IgG1, kappa)
heavy: B1 heavy with A233G, L300S
light: B1 light
notes: as for B1
B6: M103205H795-MY525/M103202L889-SK1 (antibody, human IgG1, kappa)
heavy: B1 heavy with A233T, S241V, L297Q, L300S
light: B1 light
notes: as for B1
B7: M103205H795-MY523/M103202L889-SK1 (antibody, human IgG1, kappa)
heavy: B1 heavy with A233G, S241V, L300S
light: B1 light
notes: as for B1
B8: M103205H795-MY521/M103202L889-SK1 (antibody, human IgG1, kappa)
heavy: B1 heavy with P234D, L300S
light: B1 light
notes: as for B1
B9: M103205H795-MY531/M103202L889-SK1 (antibody, human IgG1, kappa)
heavy: B1 heavy with L236W, L297Q, L300S, K328T
light: B1 light
notes: as for B1
B10: M103205H795-MY528/M103202L889-SK1 (antibody, human IgG1, kappa)
heavy: B1 heavy with L236W, L297Q, L300S
light: B1 light
notes: as for B1
B11: M103205H795-MY516/M103202L889-SK1 (antibody, human IgG1, kappa)
heavy: B1 heavy with S241V
light: B1 light
notes: as for B1
B12: M103205H795-MY520/M103202L889-SK1 (antibody, human IgG1, kappa)
heavy: B1 heavy with P234D, S241V, L300S
light: B1 light
notes: as for B1
B13: M103205H795-MY530/M103202L889-SK1 (antibody, human IgG1, kappa)
heavy: B1 heavy with L297Q, L300S, K328T
light: B1 light
notes: as for B1
B14: M103205H795-MY532/M103202L889-SK1 (antibody, human IgG1, kappa)
heavy: B1 heavy with L236W, S241V, L297Q, L300S
light: B1 light
notes: as for B1
B15: M103205H795-MY529/M103202L889-SK1 (antibody, human IgG1, kappa)
heavy: B1 heavy with L236W, L300S
light: B1 light
notes: as for B1

Target: T1, cynomolgus monkey FcγRIIa2 …
Assay: SPR (BIACORE), antibody captured, FcgR analyte

Kd	Binder
1600 nM	B1
1200 nM	B2
1300 nM	B3
1200 nM	B4
11000 nM	B5
1100 nM	B6
1300 nM	B7
33000 nM	B8
920 nM	B9
1500 nM	B10
13000 nM	B11
2300 nM	B12
1100 nM	B13
600 nM	B14
1400 nM	B15

Target: T2, cynomolgus monkey FcγRIIa1 …
Assay: SPR (BIACORE), antibody captured, FcgR analyte

Kd	Binder
140 nM	B1
1700 nM	B2
1100 nM	B3
13000 nM	B4
1000 nM	B5
1600 nM	B6
1400 nM	B7
2500 nM	B8
1100 nM	B9
1400 nM	B10
150 nM	B11
2500 nM	B12
13 nM	B13
770 nM	B14
1000 nM	B15

Target: T3, cynomolgus monkey FcγRIIIaS …
Assay: SPR (BIACORE), antibody captured, FcgR analyte

Kd	Binder
3800 nM	B1
1900 nM	B2
1500 nM	B3
16000 nM	B4
2000 nM	B5
1400 nM	B6
2100 nM	B7
2200 nM	B8
1000 nM	B9
2000 nM	B10
3000 nM	B11
2000 nM	B12
850 nM	B13
860 nM	B14
2200 nM	B15

Target: T4, cynomolgus monkey FcγRIIb extracellular …
Assay: SPR (BIACORE), antibody captured, FcgR analyte

Kd	Binder
390 nM	B1
530 nM	B2
340 nM	B3
450 nM	B4
310 nM	B5
510 nM	B6
430 nM	B7
800 nM	B8
270 nM	B9
410 nM	B10
450 nM	B11
960 nM	B12
320 nM	B13
230 nM	B14
390 nM	B15

The binders below were run against T5, human FcγRIIb extracellular domain with … (assay: SPR (BIACORE), antibody captured, FcgR analyte).

Kd	Binder
1200 nM	B1
1100 nM	B2
1400 nM	B3
1200 nM	B4
1000 nM	B5
1200 nM	B6
1100 nM	B7
1500 nM	B8
1500 nM	B9
2200 nM	B10
510 nM	B11
1400 nM	B12
1600 nM	B13
830 nM	B14
1400 nM	B15

Target: T6, human FcγRIIaR extracellular domain …
Assay: SPR (BIACORE), antibody captured, FcgR analyte

Kd	Binder
260 nM	B1
170 nM	B2
290 nM	B3
210 nM	B4
280 nM	B5
160 nM	B6
210 nM	B7
300 nM	B8
410 nM	B9
360 nM	B10
85 nM	B11
340 nM	B12
270 nM	B13
190 nM	B14
530 nM	B15

These binders were tested against T7, human FcγRIIaH extracellular domain … (assay: SPR (BIACORE), antibody captured, FcgR analyte).

Kd	Binder
220 nM	B1
240 nM	B2
110 nM	B3
170 nM	B4
110 nM	B5
210 nM	B6
190 nM	B7
390 nM	B8
290 nM	B9
390 nM	B10
220 nM	B11
490 nM	B12
170 nM	B13
210 nM	B14
230 nM	B15
